Data from paper PMC4748334.

Biological target: Francisella tularensis polyphosphate kinase 2 (FtPPK2) (Francisella tularensis subspecies tularensis SCHU S4)
Assay: crystal structure

Francisella tularensis polyphosphate kinase 2 (FtPPK2) (enzyme)
stoichiometry N: 4
